One assay concerns the target eGFP-CaMKII (UniProt P11275). The experiment in a line: number and brightness.
Assay [1] has as its target nonlabeled αCaMKII (Ca2+/CaM-dependent protein kinase II, alpha) (UniProt P11275). The experiment in a line: number and brightness.

Our source for the stoichiometry N and molecular brightness, times that of eGFP (times that of eGFP) values is paper PMC2599858.

What is called stoichiometry N is a count of units in the complex or per binding partner.

Sequence of eGFP-CaMKII (P11275 whole entry): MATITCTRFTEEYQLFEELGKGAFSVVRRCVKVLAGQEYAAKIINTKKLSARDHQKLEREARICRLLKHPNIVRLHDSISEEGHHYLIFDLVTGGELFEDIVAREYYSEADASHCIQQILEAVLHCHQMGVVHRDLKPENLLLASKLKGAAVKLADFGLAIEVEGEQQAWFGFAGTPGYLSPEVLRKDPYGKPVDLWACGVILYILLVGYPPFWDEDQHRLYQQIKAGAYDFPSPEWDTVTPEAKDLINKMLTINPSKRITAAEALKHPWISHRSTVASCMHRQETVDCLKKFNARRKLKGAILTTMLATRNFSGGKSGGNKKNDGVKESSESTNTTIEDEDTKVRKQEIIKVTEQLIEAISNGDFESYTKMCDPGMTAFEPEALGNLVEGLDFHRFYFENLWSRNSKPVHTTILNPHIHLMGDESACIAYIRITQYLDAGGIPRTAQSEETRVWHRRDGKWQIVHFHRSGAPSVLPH

Turning to “eGFP-CaMKII (from UniProt P11275 1-478) (enzyme)”, in the assay with eGFP-CaMKII, the stoichiometry N is over 3.
In assay [1], “enhanced green fluorescent protein (eGFP)-CaM (from UniProt P0DP23 1-149) (natural protein)” came in with a molecular brightness, times that of eGFP (times that of eGFP) of 3.
